Assay results taken from US20250269048A1 (BIVICTRIX, published 2025).

T1: human CD7 on cells (human, UniProt P09564 26-240)
T1 construct: whole, on cells; Target of the FACS and cell capture values and of the kill assays on CD7 single positive cells; also called CD7+ cells; Jurkat (CD33-/CD7+)
T1 sequence (looked up): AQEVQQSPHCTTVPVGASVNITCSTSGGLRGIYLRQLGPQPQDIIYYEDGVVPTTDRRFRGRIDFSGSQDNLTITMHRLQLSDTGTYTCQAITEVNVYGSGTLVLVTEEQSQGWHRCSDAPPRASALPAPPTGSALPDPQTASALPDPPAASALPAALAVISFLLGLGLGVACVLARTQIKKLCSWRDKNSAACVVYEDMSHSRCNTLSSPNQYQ

T2: human CD7 (human, UniProt P09564 26-180, limits assumed)
T2 construct: The construct is not described
T2 sequence (looked up): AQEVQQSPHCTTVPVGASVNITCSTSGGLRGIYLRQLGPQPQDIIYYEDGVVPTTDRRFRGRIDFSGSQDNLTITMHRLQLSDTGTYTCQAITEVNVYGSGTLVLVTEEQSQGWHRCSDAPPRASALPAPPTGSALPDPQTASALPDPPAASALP


Columns and labels:
human CD7 on cells [1] = molecular target: T1, human CD7 on cells; assay: FACS; reference 7-PP-1 WT
human CD7 on cells [2] = molecular target: T1, human CD7 on cells; assay: FACS; cells not named
human CD7 [3] = molecular target: T2, human CD7; assay: SPR; reference 7-AA-WT
human CD7 [4] = molecular target: T2, human CD7; assay: SPR
human CD7 [5] = molecular target: T2, human CD7; assay: SPR; reference 7-PP-1 WT
human CD7 on cells [6] = molecular target: T1, human CD7 on cells; assay: cell-based or functional assay

Row | Binder | FACS fold reduction compared to PP WT (human CD7 on cells [1]) | FACS binding (human CD7 on cells [2]) | Fold Reduction in binding affinity compared to WT (Kd) (human CD7 [3]) | Kd (human CD7 [4]) | Fold Reduction in binding affinity compared to PP WT (Kd) (human CD7 [5]) | EC50 (nM), cytotoxicity (MTS, 96 h) on Jurkat cells (CD7+/CD33-) (human CD7 on cells [6])
1 | 7-PP-4 (Fab, V domains shown) VH: QVQLQESGAELVKPGASVKLSCKASGYTFTSYWMHWVKQRPGQGLEWIGKINPSNGRTNYNEKFKSKATLTVDKSSSTAYMQLSSLTSEDSAVYYCARGGVTYDLYYYALDYWGQGTTVTVSS VL: DIELTQSPATLSVTPGDSVSLSCRASQSISNNLHWYQQKSHESPRLLIKSASQSISGIPSRFSGSGSGTDFTLSINSVETEDFGMYFCQQSNSWPYTFGGGTKLEIKR | 3740 fold | 1990 | – | – | – | –
2 | CD7-PP-7 CD7 binding arm (Fab, V domains shown, Heavy chain Arg57Gly/Tyr108Ala) VH: QVQLQESGAELVKPGASVKLSCKASGYTFTSYWMHWVKQRPGQGLEWIGKINPSNGGTNYNEKFKSKATLTVDKSSSTAYMQLSSLTSEDSAVYYCARGGVYYDLYYAALDYWGQGTTVTVSS VL: DIELTQSPATLSVTPGDSVSLSCRASQSISNNLHWYQQKSHESPRLLIKSASQSISGIPSRFSGSGSGTDFTLSINSVETEDFGMYFCQQSNSWPYTFGGGTKLEIKR | 502 fold | 267 | 206 fold | 541 nM | 152 fold | –
3 | CD7-PP-12 CD7 binding arm (Fab, V domains shown, Light chain Gln27Ala) VH: QVQLQESGAELVKPGASVKLSCKASGYTFTSYWMHWVKQRPGQGLEWIGKINPSNGRTNYNEKFKSKATLTVDKSSSTAYMQLSSLTSEDSAVYYCARGGVYYDLYYYALDYWGQGTTVTVSS VL: DIELTQSPATLSVTPGDSVSLSCRASASISNNLHWYQQKSHESPRLLIKSASQSISGIPSRFSGSGSGTDFTLSINSVETEDFGMYFCQQSNSWPYTFGGGTKLEIKR | 0.004 fold | 0.002 | 2.08 fold | 5.46 nM | 1.53 fold | –
4 | CD7-PP-8 CD7 binding arm (Fab, V domains shown) VH: QVQLQESGAELVKPGASVKLSCKASGYTFTSYWMHWVKQRPGQGLEWIGKINPSNGKTNYNEKFKSKATLTVDKSSSTAYMQLSSLTSEDSAVYYCARGGVYYDLYYAALDYWGQGTTVTVSS VL: DIELTQSPATLSVTPGDSVSLSCRASQSISNNLHWYQQKSHESPRLLIKSASQSISGIPSRFSGSGSGTDFTLSINSVETEDFGMYFCQQSNSWPYTFGGGTKLEIKR | 182 fold | 96.8 | 87.2 fold | 229 nM | 64.3 fold | –
5 | CD7-PP-3 CD7 binding arm (Fab, V domains shown, Heavy chain Arg57Lys) VH: QVQLQESGAELVKPGASVKLSCKASGYTFTSYWMHWVKQRPGQGLEWIGKINPSNGKTNYNEKFKSKATLTVDKSSSTAYMQLSSLTSEDSAVYYCARGGVYYDLYYYALDYWGQGTTVTVSS VL: DIELTQSPATLSVTPGDSVSLSCRASQSISNNLHWYQQKSHESPRLLIKSASQSISGIPSRFSGSGSGTDFTLSINSVETEDFGMYFCQQSNSWPYTFGGGTKLEIKR | 24.5 fold | 13 | 12.4 fold | 32.5 nM | 9.13 fold | –
6 | CD7-PP-2 CD7 binding arm (Fab, V domains shown, Heavy chain Arg57Gly) VH: QVQLQESGAELVKPGASVKLSCKASGYTFTSYWMHWVKQRPGQGLEWIGKINPSNGGTNYNEKFKSKATLTVDKSSSTAYMQLSSLTSEDSAVYYCARGGVYYDLYYYALDYWGQGTTVTVSS VL: DIELTQSPATLSVTPGDSVSLSCRASQSISNNLHWYQQKSHESPRLLIKSASQSISGIPSRFSGSGSGTDFTLSINSVETEDFGMYFCQQSNSWPYTFGGGTKLEIKR | 64.9 fold | 34.6 | 28.8 fold | 75.7 nM | 21.3 fold | –
7 | 7-PP-10 (Fab, V domains shown) VH: QVQLQESGAELVKPGASVKLSCKASGYTFTSYWMHWVKQRPGQGLEWIGKINPSNGRTNYNEKFKSKATLTVDKSSSTAYMQLSSLTSEDSAVYYCARGGVYYDGYYAALDYWGQGTTVTVSS VL: DIELTQSPATLSVTPGDSVSLSCRASQSISNNLHWYQQKSHESPRLLIKSASQSISGIPSRFSGSGSGTDFTLSINSVETEDFGMYFCQQSNSWPYTFGGGTKLEIKR | 628 fold | 335 | – | – | – | –
8 | 7-PP-9 (Fab, V domains shown) VH: QVQLQESGAELVKPGASVKLSCKASGYTFTSYWMHWVKQRPGQGLEWIGKINPSNGRTNYNEKFKSKATLTVDKSSSTAYMQLSSLTSEDSAVYYCARGGVTYDLYYAALDYWGQGTTVTVSS VL: DIELTQSPATLSVTPGDSVSLSCRASQSISNNLHWYQQKSHESPRLLIKSASQSISGIPSRFSGSGSGTDFTLSINSVETEDFGMYFCQQSNSWPYTFGGGTKLEIKR | 517 fold | 275 | – | – | – | –
9 | 7-PP-5 (Fab, V domains shown) VH: QVQLQESGAELVKPGASVKLSCKASGYTFTSYWMHWVKQRPGQGLEWIGKINPSNGRTNYNEKFKSKATLTVDKSSSTAYMQLSSLTSEDSAVYYCARGGVYYDGYYYALDYWGQGTTVTVSS VL: DIELTQSPATLSVTPGDSVSLSCRASQSISNNLHWYQQKSHESPRLLIKSASQSISGIPSRFSGSGSGTDFTLSINSVETEDFGMYFCQQSNSWPYTFGGGTKLEIKR | 503 fold | 268 | – | – | – | –
10 | 7-PP-11 (Fab, V domains shown) VH: QVQLQESGAELVKPGASVKLSCKASGYTFTSYWMHWVKQRPGQGLEWIGKINPSNGRTNYNEKFKSKATLTVDKSSSTAYMQLSSLTSEDSAVYYCARGGVYYALYYAALDYWGQGTTVTVSS VL: DIELTQSPATLSVTPGDSVSLSCRASQSISNNLHWYQQKSHESPRLLIKSASQSISGIPSRFSGSGSGTDFTLSINSVETEDFGMYFCQQSNSWPYTFGGGTKLEIKR | 105 fold | 55.9 | 93.7 fold | 246 nM | 69.1 fold | –
11 | CD7-PP-6 binding arm (Fab, V domains shown, Heavy chain Asp104Ala) VH: QVQLQESGAELVKPGASVKLSCKASGYTFTSYWMHWVKQRPGQGLEWIGKINPSNGRTNYNEKFKSKATLTVDKSSSTAYMQLSSLTSEDSAVYYCARGGVYYALYYYALDYWGQGTTVTVSS VL: DIELTQSPATLSVTPGDSVSLSCRASQSISNNLHWYQQKSHESPRLLIKSASQSISGIPSRFSGSGSGTDFTLSINSVETEDFGMYFCQQSNSWPYTFGGGTKLEIKR | 18.3 fold | 9.76 | 17.2 fold | 45.2 nM | 12.7 fold | –
12 | BVX140-MMAE (bispecific antibody) heavy: QVQLQESGAELVKPGASVKLSCKASGYTFTSYWMHWVKQRPGQGLEWIGKINPSNGGTNYNEKFKSKATLTVDKSSSTAYMQLSSLTSEDSAVYYCARGGVYYDLYYAALDYWGQGTTVTVSSASTKGPSVFPLAPSSKSTSGGTAALGCLVKDYFPEPVTVSWNSGALTSGVHTFPAVLQSSGLYSLSSVVTVPSSSLGTQTYCCNVNHKPSNTKVDKKVEPKSCDKT light: DIELTQSPATLSVTPGDSVSLSCRASQSISNNLHWYQQKSHESPRLLIKSASQSISGIPSRFSGSGSGTDFTLSINSVETEDFGMYFCQQSNSWPYTFGGGTKLEIKRTVAAPSVFIFPPSDEQLKSGTASVVCLLNNFYPREAKVQWKVDNALQSGNSQESVTEQDSKDSTYSLSSTLTLSKADYEKHKVYACEVTHQGLSSPVTKSFNRGEC VH: EVQLVQSGAEVKKPGSSVKVSCKASGYTITDSNIHWVRQAPGQSLEWIGYIYPYNGGTDYNQKFKNRATLTVDNPTNTAYMELSSLRSEDTAFYYCVNGNPWLAYWGQGTLVTVSS VL: DIQLTQSPSTLSASVGDRVTIICRASESLDNYGIRFLTWFQQKPGKAPKLLMYAASNQGSGVPSRFSGSGSGTEFTLTISSLQPDDFATYYCQQTKEVPWSFGQGTKLEIK | – | – | – | – | – | 22.8 nM
13 | BVX160-MMAE (bispecific antibody) heavy: QVQLQESGAELVKPGASVKLSCKASGYTFTSYWMHWVKQRPGQGLEWIGKINPSNGRTNYNEKFKSKATLTVDKSSSTAYMQLSSLTSEDSAVYYCARGGVYYDLYYAALDYWGQGTTVTVSSASTKGPSVFPLAPSSKSTSGGTAALGCLVKDYFPEPVTVSWNSGALTSGVHTFPAVLQSSGLYSLSSVVTVPSSSLGTQTYCCNVNHKPSNTKVDKKVEPKSCDKT light: DIELTQSPATLSVTPGDSVSLSCRASQSISNNLHWYQQKSHESPRLLIKSASQSISGIPSRFSGSGSGTDFTLSINSVETEDFGMYFCQQSNSWPYTFGGGTKLEIKRTVAAPSVFIFPPSDEQLKSGTASVVCLLNNFYPREAKVQWKVDNALQSGNSQESVTEQDSKDSTYSLSSTLTLSKADYEKHKVYACEVTHQGLSSPVTKSFNRGEC VH: EVQLVQSGAEVKKPGSSVKVSCKASGYTITDSNIHWVRQAPGQSLEWIGYIYPYNGGTDYNQKFKNRATLTVDNPTNTAYMELSSLRSEDTAFYYCVNGNPWLAYWGQGTLVTVSS VL: DIQLTQSPSTLSASVGDRVTIICRASESLDNYGIRFLTWFQQKPGKAPKLLMYAASNQGSGVPSRFSGSGSGTEFTLTISSLQPDDFATYYCQQTKEVPWSFGQGTKLEIK | – | – | – | – | – | 7.31 nM
